For 27 molecules, Kd results are on record in article PMC10786891, “Massively parallel profiling of RNA-targeting CRISPR-Cas13d”.

One may read the Kd as the free concentration of one partner at which half of the binding sites on the other are occupied at equilibrium, for simple one-to-one binding.

To fix the notation:
T1: EsCas13d, nuclease-dead (Eubacterium siraeum, UniProt B0MS50, R295A;H300A;R849A;H854A)
T1 sequence: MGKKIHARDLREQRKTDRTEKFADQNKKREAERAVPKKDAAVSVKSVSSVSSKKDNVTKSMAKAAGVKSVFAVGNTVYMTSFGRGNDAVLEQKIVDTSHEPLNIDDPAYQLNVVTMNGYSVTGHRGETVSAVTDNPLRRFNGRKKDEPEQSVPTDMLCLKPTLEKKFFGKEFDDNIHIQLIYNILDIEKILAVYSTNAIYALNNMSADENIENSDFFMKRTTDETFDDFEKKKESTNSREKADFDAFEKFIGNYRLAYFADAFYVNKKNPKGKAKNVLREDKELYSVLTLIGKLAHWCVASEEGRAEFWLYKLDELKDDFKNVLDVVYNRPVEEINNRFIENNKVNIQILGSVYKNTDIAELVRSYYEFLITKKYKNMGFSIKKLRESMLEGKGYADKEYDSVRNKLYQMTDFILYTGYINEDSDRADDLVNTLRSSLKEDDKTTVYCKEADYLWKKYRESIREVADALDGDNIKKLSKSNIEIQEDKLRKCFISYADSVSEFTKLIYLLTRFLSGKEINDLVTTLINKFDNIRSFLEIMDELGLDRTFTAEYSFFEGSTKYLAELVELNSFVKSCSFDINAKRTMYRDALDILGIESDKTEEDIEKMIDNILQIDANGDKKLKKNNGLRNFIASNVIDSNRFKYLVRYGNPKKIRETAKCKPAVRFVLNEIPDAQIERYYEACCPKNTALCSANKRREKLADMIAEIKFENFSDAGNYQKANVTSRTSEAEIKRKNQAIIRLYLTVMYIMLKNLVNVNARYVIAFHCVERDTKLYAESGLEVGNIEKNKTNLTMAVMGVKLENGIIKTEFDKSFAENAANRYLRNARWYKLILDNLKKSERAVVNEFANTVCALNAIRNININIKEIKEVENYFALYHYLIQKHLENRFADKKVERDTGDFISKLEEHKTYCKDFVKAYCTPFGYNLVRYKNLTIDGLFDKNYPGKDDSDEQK

B1: target 1 U3A,G5A (mixed)
RNA 1: CACCCGUGCAAAAAUGCAGGGGUCUAAAACUGAGCGGAUAACCUCUCUAUGG
RNA 2: GGGAAUGGAUCCACAUCUACGAAUUCGUACCAUAGAGAGGUUAUCCACACACCGAGAUCGGAAGAGCACACGU
B2: target 1 insG 3' of 20,insU 3' of 18 (mixed)
RNA 1: CACCCGUGCAAAAAUGCAGGGGUCUAAAACUGAGCGGAUAACCUCUCUAUGG
RNA 2: GGGAAUGGAUCCACAUCUACGAAUUCGUACCAGUAUGAGAGGUUAUCCGCUCACCGAGAUCGGAAGAGCACACGU
B3: target 1 insU 3' of 9,insA 3' of 4 (mixed)
RNA 1: CACCCGUGCAAAAAUGCAGGGGUCUAAAACUGAGCGGAUAACCUCUCUAUGG
RNA 2: GGGAAUGGAUCCACAUCUACGAAUUCGUACCAUAGAGAGGUUAUUCCGCAUCACCGAGAUCGGAAGAGCACACGU
B4: target 1 insA 3' of 8,insG 3' of 3 (mixed)
RNA 1: CACCCGUGCAAAAAUGCAGGGGUCUAAAACUGAGCGGAUAACCUCUCUAUGG
RNA 2: GGGAAUGGAUCCACAUCUACGAAUUCGUACCAUAGAGAGGUUAUACCGCUGCACCGAGAUCGGAAGAGCACACGU
B5: target 1 U8A,C22G (mixed)
RNA 1: CACCCGUGCAAAAAUGCAGGGGUCUAAAACUGAGCGGAUAACCUCUCUAUGG
RNA 2: GGGAAUGGAUCCACAUCUACGAAUUCGUAGCAUAGAGAGGUUAACCGCUCACCGAGAUCGGAAGAGCACACGU
B6: target 1 A1C,C2A (mixed)
RNA 1: CACCCGUGCAAAAAUGCAGGGGUCUAAAACUGAGCGGAUAACCUCUCUAUGG
RNA 2: GGGAAUGGAUCCACAUCUACGAAUUCGUACCAUAGAGAGGUUAUCCGCUACCCGAGAUCGGAAGAGCACACGU
B7: target 1 U8C,G15C (mixed)
RNA 1: CACCCGUGCAAAAAUGCAGGGGUCUAAAACUGAGCGGAUAACCUCUCUAUGG
RNA 2: GGGAAUGGAUCCACAUCUACGAAUUCGUACCAUAGACAGGUUACCCGCUCACCGAGAUCGGAAGAGCACACGU
B8: target 1 C2A,U19C (mixed)
RNA 1: CACCCGUGCAAAAAUGCAGGGGUCUAAAACUGAGCGGAUAACCUCUCUAUGG
RNA 2: GGGAAUGGAUCCACAUCUACGAAUUCGUACCACAGAGAGGUUAUCCGCUAACCGAGAUCGGAAGAGCACACGU
B9: target 1 C2U,G15A (mixed)
RNA 1: CACCCGUGCAAAAAUGCAGGGGUCUAAAACUGAGCGGAUAACCUCUCUAUGG
RNA 2: GGGAAUGGAUCCACAUCUACGAAUUCGUACCAUAGAAAGGUUAUCCGCUUACCGAGAUCGGAAGAGCACACGU
B10: target 1 insG 3' of 14,insA 3' of 4 (mixed)
RNA 1: CACCCGUGCAAAAAUGCAGGGGUCUAAAACUGAGCGGAUAACCUCUCUAUGG
RNA 2: GGGAAUGGAUCCACAUCUACGAAUUCGUACCAUAGAGAGGGUUAUCCGCAUCACCGAGAUCGGAAGAGCACACGU
B11: target 1 insC 3' of 15,insG 3' of 11 (mixed)
RNA 1: CACCCGUGCAAAAAUGCAGGGGUCUAAAACUGAGCGGAUAACCUCUCUAUGG
RNA 2: GGGAAUGGAUCCACAUCUACGAAUUCGUACCAUAGAGCAGGUGUAUCCGCUCACCGAGAUCGGAAGAGCACACGU
B12: target 1 insC 3' of 13,insU 3' of 13 (mixed)
RNA 1: CACCCGUGCAAAAAUGCAGGGGUCUAAAACUGAGCGGAUAACCUCUCUAUGG
RNA 2: GGGAAUGGAUCCACAUCUACGAAUUCGUACCAUAGAGAGCUGUUAUCCGCUCACCGAGAUCGGAAGAGCACACGU
B13: target 1 insG 3' of 16,insU 3' of 16 (mixed)
RNA 1: CACCCGUGCAAAAAUGCAGGGGUCUAAAACUGAGCGGAUAACCUCUCUAUGG
RNA 2: GGGAAUGGAUCCACAUCUACGAAUUCGUACCAUAGAGUGAGGUUAUCCGCUCACCGAGAUCGGAAGAGCACACGU
B14: target 1 C2A (mixed)
RNA 1: CACCCGUGCAAAAAUGCAGGGGUCUAAAACUGAGCGGAUAACCUCUCUAUGG
RNA 2: GGGAAUGGAUCCACAUCUACGAAUUCGUACCAUAGAGAGGUUAUCCGCUAACCGAGAUCGGAAGAGCACACGU
B15: target 1 insG 3' of 6,insU 3' of 2 (mixed)
RNA 1: CACCCGUGCAAAAAUGCAGGGGUCUAAAACUGAGCGGAUAACCUCUCUAUGG
RNA 2: GGGAAUGGAUCCACAUCUACGAAUUCGUACCAUAGAGAGGUUAUCCGGCUCUACCGAGAUCGGAAGAGCACACGU
B16: target 1 insA 3' of 10,insG 3' of 4 (mixed)
RNA 1: CACCCGUGCAAAAAUGCAGGGGUCUAAAACUGAGCGGAUAACCUCUCUAUGG
RNA 2: GGGAAUGGAUCCACAUCUACGAAUUCGUACCAUAGAGAGGUUAAUCCGCGUCACCGAGAUCGGAAGAGCACACGU
B17: target 1 insU 3' of 12,insG 3' of 2 (mixed)
RNA 1: CACCCGUGCAAAAAUGCAGGGGUCUAAAACUGAGCGGAUAACCUCUCUAUGG
RNA 2: GGGAAUGGAUCCACAUCUACGAAUUCGUACCAUAGAGAGGUUUAUCCGCUCGACCGAGAUCGGAAGAGCACACGU
B18: target 1 insU 3' of 14,insU 3' of 12 (mixed)
RNA 1: CACCCGUGCAAAAAUGCAGGGGUCUAAAACUGAGCGGAUAACCUCUCUAUGG
RNA 2: GGGAAUGGAUCCACAUCUACGAAUUCGUACCAUAGAGAUGGUUUAUCCGCUCACCGAGAUCGGAAGAGCACACGU
B19: target 1 insC 3' of 14,insG 3' of 6 (mixed)
RNA 1: CACCCGUGCAAAAAUGCAGGGGUCUAAAACUGAGCGGAUAACCUCUCUAUGG
RNA 2: GGGAAUGGAUCCACAUCUACGAAUUCGUACCAUAGAGACGGUUAUCCGGCUCACCGAGAUCGGAAGAGCACACGU
B20: target 1 insC 3' of 17,insA 3' of 4 (mixed)
RNA 1: CACCCGUGCAAAAAUGCAGGGGUCUAAAACUGAGCGGAUAACCUCUCUAUGG
RNA 2: GGGAAUGGAUCCACAUCUACGAAUUCGUACCAUAGCAGAGGUUAUCCGCAUCACCGAGAUCGGAAGAGCACACGU
B21: target 1 G5U,G13A (mixed)
RNA 1: CACCCGUGCAAAAAUGCAGGGGUCUAAAACUGAGCGGAUAACCUCUCUAUGG
RNA 2: GGGAAUGGAUCCACAUCUACGAAUUCGUACCAUAGAGAAGUUAUCCUCUCACCGAGAUCGGAAGAGCACACGU
B22: target 1 G12A,G13U (mixed)
RNA 1: CACCCGUGCAAAAAUGCAGGGGUCUAAAACUGAGCGGAUAACCUCUCUAUGG
RNA 2: GGGAAUGGAUCCACAUCUACGAAUUCGUACCAUAGAGAUAUUAUCCGCUCACCGAGAUCGGAAGAGCACACGU
B23: target 1 U10A,C22A (mixed)
RNA 1: CACCCGUGCAAAAAUGCAGGGGUCUAAAACUGAGCGGAUAACCUCUCUAUGG
RNA 2: GGGAAUGGAUCCACAUCUACGAAUUCGUAACAUAGAGAGGUAAUCCGCUCACCGAGAUCGGAAGAGCACACGU
B24: target 1 insC 3' of 18,insG 3' of 3 (mixed)
RNA 1: CACCCGUGCAAAAAUGCAGGGGUCUAAAACUGAGCGGAUAACCUCUCUAUGG
RNA 2: GGGAAUGGAUCCACAUCUACGAAUUCGUACCAUACGAGAGGUUAUCCGCUGCACCGAGAUCGGAAGAGCACACGU
B25: target 1 insA 3' of 12,insG 3' of 4 (mixed)
RNA 1: CACCCGUGCAAAAAUGCAGGGGUCUAAAACUGAGCGGAUAACCUCUCUAUGG
RNA 2: GGGAAUGGAUCCACAUCUACGAAUUCGUACCAUAGAGAGGAUUAUCCGCGUCACCGAGAUCGGAAGAGCACACGU
B26: target 1 C2G,G17U (mixed)
RNA 1: CACCCGUGCAAAAAUGCAGGGGUCUAAAACUGAGCGGAUAACCUCUCUAUGG
RNA 2: GGGAAUGGAUCCACAUCUACGAAUUCGUACCAUAUAGAGGUUAUCCGCUGACCGAGAUCGGAAGAGCACACGU
B27: target 1 insC 3' of 11,insU 3' of 9 (mixed)
RNA 1: CACCCGUGCAAAAAUGCAGGGGUCUAAAACUGAGCGGAUAACCUCUCUAUGG
RNA 2: GGGAAUGGAUCCACAUCUACGAAUUCGUACCAUAGAGAGGUCUAUUCCGCUCACCGAGAUCGGAAGAGCACACGU

This series has as its target T1, EsCas13d, nuclease-dead. In words: crRNA (strand 1, pre-loaded); Mg2+; 40 mM Tris-HCl pH 7.5, 150 mM NaCl, 6 mM MgCl2, 1 mM DTT, 0.1% Tween-20, 0.2 mg/ml BSA; 25 C; 10 min per concentration, then washed. Conditions: tags: His6-TwinStrep-SUMO cleaved; N-terminal SNAP kept (SNAP-Surface 488); label: 3' end held by stalled T7 RNA polymerase.
As to B1, binding was put at a Kd of 53 ± 8 nM.

The molecule B2 came in with a Kd of 65 ± 15 nM.

In the case of B3, the Kd stood at 8 ± 1 nM.

The molecule B4 had a dissociation constant (Kd) of 10 ± 0.7 nM.

On to B5, for which the Kd was found to be 68 ± 13 nM.

B6 gave a dissociation constant Kd of 36 ± 4 nM.

In turn, B7 showed a dissociation constant (Kd) of 68 ± 11 nM.

Molecule B8 returned a Kd of 22.1 ± 1.6 nM.

With B9, the Kd came out at 13.7 ± 0.7 nM.

B10 showed a dissociation constant (Kd) of 12.2 ± 1.4 nM.

B11: the Kd was determined as 41 ± 6 nM.

Molecule B12 yielded an equilibrium dissociation constant (Kd) of 8.3 ± 0.4 nM.

For the molecule B13, the dissociation constant Kd worked out at 44 ± 8 nM.

For B14, the affinity, expressed as Kd, was 9.3 ± 0.9 nM.

For the molecule B15, the Kd turned out to be 16.4 ± 0.9 nM.

In turn, B16 showed a Kd of 6.44 ± 0.26 nM.

In the case of B17, the dissociation constant (Kd) came out at 6.9 ± 0.6 nM.

For the molecule B18, the affinity, expressed as Kd, was 26.6 ± 2.7 nM.

For B19, binding was characterised by a dissociation constant (Kd) of 54 ± 6 nM.

With B20, the Kd stood at 28.6 ± 2.3 nM.

For B21, the dissociation constant Kd was determined as 11.5 ± 0.5 nM.

In the case of B22, the affinity, expressed as Kd, was 14.6 ± 1.4 nM.

B23 yielded a Kd of 12.5 ± 1.2 nM.

B24: binding was characterised by a dissociation constant (Kd) of 26.8 ± 1.8 nM.

On to B25, for which the Kd amounted to 16.2 ± 1.1 nM.

The molecule B26 gave a Kd of 14.5 ± 0.7 nM.

B27 had a Kd of 40 ± 17 nM.
